Reference: a protein production outcome set (Wang et al. 2014)

Assay: label from the status in PepcDB records

For “MTHVNIMAGGPQACLPAAWEQLPGVWIGVDRGTLRLVRAGIHPELAVGDFDSLTLEELRLVRGHVQKLQQVPSEKDDTDTELAVKAALQASSSGDVTLVGGTGGRLDHFLSNLFLPLQPRFLADVERLHLFDVQNWVDYYSPGEHEIKPLPGYRYVAVVNLTPVADLTIVGAKYPLKPWRAGYPYAWASNEFLGKQPFTVSWTTGQVAIIYSRDRRGQKLDNLEHHHHHH”, which protein production is on record?
Its protein production is “not failed”.

For “MTIAATMLRAITVLMALLLLVAAGPAAAADEGGDLLEQFLGRKYEPVLKPLEIPEGTPPSEALFLYLNQGYGDAGVIGDFLAKGADANYADKEYRITLLHNVAHYGHAEATRILLAAGARVNAVNGEGNTPLFAAVHEGHDDVARILLDAGADVTIANSYWYTPLREACRRGNTGMVRLLLEKGADVNITDNKGFTPLHAAVSAEALEAATLILDSGADINIAGRYGDTPLHYAVGLGYEEFVRLFLARGADPTIRNDRGLTPRQLAEERGFASIVELFRNWGKNTI”, which protein production is on record?
Its protein production is “failed”.

For “MTIACPQCGATAEARTDTRFHGCAFCGSSFMVERGVGIAEYHLDHERDDRVAWSAVASTLERDGAGQAVERTGCEYLVAPFWLSRPESGGNRLVPALRHPWLQGPLPGLPGGDLLFVPSGDDFILPDIPADEALGEGADRGGTSLSLVYLPLYLLSFRLAGHDCRALVSAVDRRVALLTPLPARSESVPFRHAALVAGFAITLTASGLAVKSHFLRAAVFAAVLAVAWPVCTALLRRGE”, which protein production is on record?
The protein production was “failed”.

For “MTIAILSTGDEIIHGDTLNTNAHYIAHALCSEGLPLGLQVACSDKENEIIDSLNFLTQHHDILILIGGLGPTKDDITRFALAKFTKEPLLQHADALDHIEKKANIAKISLNQGNLQQCLFPANARLFPNPYGTAMGCSYSWKGKVFILLPGPPRECLPMFNQDVLPLLLQTSRHSNK”, which protein production is on record?
The protein production was “not failed”.

For “MTIHKKGQAHWEGDIKRGKGTVSTESGVLNQQPYGFNTRFEGEKGTNPEELIGAAHAACFSMALSLMLGEAGFTPTSIDTTADVSLDKVDAGFAITKIALKSEVAVPGIDASTFDGIIQKAKAGCPVSQVLKAEITLDYQLKS”, which protein production is on record?
The protein production was “not failed”.

Which protein production does the source give for “MTIKSLLSDIEREERNVHKAIKDSVKRNDLVTAKALAREIVSSRRTVKRLYENKAQVNSISMHLGESIATAVTVGNLSKSGEVMKLVNSLMKAPEIAVTMQAFSKEMTKTGVIEEFVSDAVDNALDSEDIEEEIEEEVDKVLTAIAGETAAELPEAVRKQKMNVPAQKAETLHGEDAIVEGVDAEEELEAIRYRLANVRS” here?
The protein production was “failed”.

Which protein production does the source give for “MTIKTLQYDDFMLYRERIRDLLVQIYDINFDVSHDYSINESNKKINLLDEYIKTNQAVLIGAVDGEKLVGFIWIYKHEYFGETRMHINQIIVDKEYKRKGIGKRLLEEAEKKAKELGIKVIDLFVSEKNAEAVNFYEKTGFVTERRYLKKILLEHHHHHH” here?
Its protein production is “not failed”.

With “MTILDRLTGLAFPAAVLRRAIKLADSGKAAEAFPLMAKAARAGIVDAEYRVARCYLEGAGVPPSRMEGARWLLRAADHGSADAQALLAALYVTGLVTSEADGKGPSEHLFKPDSAGKPDFTAAFDFATKAAEAGSATGQAILGYILTSGPASMRDADAAHRWYEKSASAGCAEGCLGFALSLARRGKRENRVRIAEEVRRAADAGLPTATYLLAVLTEHGLGVARDMAAAAQLYQAAAEKGLPSAQFRLGLALIDGALVGQDVAAGEAWMRRAALAGNIEAAYLLGDRHAKTQRPDFAEAANWYRRAAEAGHQAAARALASLYLTGNGVAEDVEEGARWLRSSASAGNQQAQTDLANLILGGAGEPDDGASVAGWFEAAASSGDLIAAFNLGLCFAKGVGVRQDEGQAAHWLRRAAEGVAEAQYMYARLLQDGRGVAADPTQARVWFARAADAGVLDARVALAEMLLNGRGGMPEPEAAMQLFEQAAADGHAGAMFAIGALYGAGHGLPLDQTTAQKWYAAAAGRGHSQAQFMLGRYLLKGLAGERDPVAARLWLERAAAHGISEAADELGAAGGSD” as the sequence, how does the protein production read?
The protein production was “failed”.

For “MTILTRYIAGAYLKILGLCLASFVAIYLVIDFLEKIGRLLRFQPRWIDIIQYFICKLPEIITQVIPLAVLMSTLLTLGMLSRNSEIVAMRGCGVGLGRISAPLIVIAAAVSLLTIFSNEFVLPSSYRQMRYVDQVLIRKQGTNTFFRQNNIWHKDESAIMMARVFDPGRQALRGITLWRFSDGMRPVSRIDAAEGTWDGARWTFKTVTVRGLAGPSVETRTLASLPAELNLKIEDLKVVDKYADNMGFFKLRDYVRKLKAGGYDTTRYEAQMHSKISLPFASLIMAFLGIPFALRGGRSSGVALGITASIGIGFAYFITNSILISFGQTGILPPLISAWAANVLFALSGIWLAMTLDR”, which protein production is on record?
Its protein production is “failed”.
